Where no end group is shown, it is not given here.
Biological target: Y2-like receptor population expressed by human SK-N-Be(2) neuroblastoma cells
Test: 125I-PYY displacement, SK-N-Be(2) membranes

B1: porcine PYY13-36 (peptide, UniProt P68005 13-36, looked up)
peptide: SPEELSRYYASLRHYLNLVTRQRY-NH2
B1 was tested. Which Ki did it give?
The Ki was 0.86 nM.
